Assay results reported in patent US20150246949A1, “Desmoglein 2 (DSG2) Binding Proteins and Uses Therefor” (UNIVERSITY OF WASHINGTON THROUGH ITS CENTER FOR …, priority 2012, published 2015).
Changes are numbered by the printed parent chain. Entries after “also recorded” stand apart in the source; their conditions may differ.

B1: JO-1: recombinant protein with the Ad3 fiber knob and a domain for self-dimerization of trimeric knobs (SEQ ID NO:27) (protein)
chain: MKVSALKEKVSALKEKVSALKEKVSALKEKVSALKEGSGGGSGGGSGGGSNSIALKNNTLWTGPKPEANCIIEYGKQNPDSKLTLILVKNGGIVNGYVTLMGASDYVNTLFKNKNVSINVELYFDATGHILPDSSSLKTDLELKYKQTADFSARGFMPSTTAYPFVLPNAGTHNENYIFGQCYYKASDGALFPLEVTVMLNKRLPDSRTSYVMTFLWSLNAGLAPETTQATLITSPFTFSYIREDD
B2: JO-4 (protein)
chain: B1 chain with Y177F

Legend:
ovc316 xenograft tumors = assay: Enhancement of PLD therapy in ovc316 ovarian cancer xenograft model; format: in vivo, CB17 mice; conditions: weekly
Protocol: (§1) FIG. 10. Combination of affinity-enhanced JO-1 versions with chemotherapy. A) Enhancement of irinotecan (I) therapy. The experimental setting was the same as in FIG. 5B. […] N=5. […] Mammary fat pad tumors were established from primary ovarian cancer ovc316 cells. Treatment was started when tumors reached a volume of 100 mm^3 Mice were injected intravenously with 2 mg/kg JO-1 or with 0.5 mg/kg JO-4, followed by an intravenous injection of PEGylated liposomal doxorubicin (PLD) (1 mg/kg) one hour later. Treatment was repeated weekly. […] A total of 4×10^6 TNBC MDA-MB-231 cells were injected into the mammary fat pad of CB17 SCID-beige mice. JO-4 (2 mg/kg) was intravenously injected 1 hour before the application of cetuximab (C) (10 mg/kg, i.p.) and nab-paclitaxel (nab-P) (5 mg/kg, i.v). Treatment was given weekly. N=10 P<0.01 at day 25 for nab-P+C vs JO-4+nab-P+C.
A549, MDA-MB-231, and ovc316 xenograft tumors were established by injection of the corresponding tumor cells into the mammary fat pad (1:1 with Matrigel) of CB17 mice. TC1-DSG2 tumors were established by subcutaneous injection of TC1-DSG2 cells into DSG2 transgenic mice. […] Tumor volumes were measured three times a week. […]

[1] = Serum clearance of JO-1 and JO-4 by ELISA; format: in vivo, hDSG2 transgenic mice; conditions: 2 mg/kg i.v.; for Decline of serum concentration within an hour after injection: TC1-hDSG2 tumors ~600 mm^3, N=3; for Serum concentration plateau: after one hour post-injection
Protocol: (§2) FIG. 11. Pharmacokinetics, toxicity, and immunogenicity of JO-4. A) Serum clearance of JO-1 and JO-4. hDSG2 transgenic mice with subcutaneous TC1-hDSG2 tumors (˜600 mm^3) were intravenously injected with JO-1 or JO-4 (2 mg/kg) and serum samples were analyzed for by ELISA. N=3. Note that the y-axis has a log scale. B) Lymphocyte and platelet counts in hDSG2/TC1-hDSG2 transgenic mice after JO-1 or JO-4 injection. N=3. C) Therapy studies in immunocompetent hDSG2 transgenic mice with TC1-hDSG2 tumors. When tumors reached a volume of ˜80 mm^3, JO-1 or JO-4 (2 mg/kg) or PBS was injected intravenously followed one hour later by PLD/Doxil (i.v. 1.5 mg/kg). Treatment was repeated as indicated by arrows. Tumors were then allowed to re-grow for about two weeks. From day 15 on serum anti-JO-1/J)-4 antibodies were detectable by ELISA. Two more treatment cycles were performed at day 28 and day 35. […] The difference between JO-1/PLD vs JO-4/PLD is significant from day 31 on. N=10.
Two of the affinity enhanced version of JO-1, Y293D and V250F were analyzed in in vivo assay. We called these mutants JO-2 and JO-4, respectively. The first study was performed in a xenograft model derived from A549 cells similar to the study described for FIG. 5B. […] Additional studies were performed in xenograft tumors derived from ovc316 cells (30, 32). Ovc316 cells are Her2/neu positive epithelial tumor cells derived from an ovarian cancer biopsy. These cells can undergo EMT and the reverse process, mesenchymal-to-epithelial-transition (MET), under specific conditions in vitro and in vivo. A subfraction of ovc316 cells that is positive for Nanog, CD133, and E-cadherin is enriched for cancer stem cells, i.e. self-renewing cells with pluripotent potential and tumor forming ability (30). Ovc316 cells therefore closely model the heterogeneity and plasticity seen in tumors in situ. […] Finally, we tested JO-4 in a model for triple-negative breast cancer (TNBC). TNBC is characterized by a lack or minimal expression of estrogen receptor (ER), progesterone receptor (PR) and the absence of Her2/neu overexpression. TNBC accounts for 15% of all breast cancers. Overall survival is poor compared with that in patients who have other phenotypes. A characteristic feature of TNBC is high levels of DSG2 and epithelial junctions. Promising clinical results in the treatment of TNBS have been achieved with nanoparticle, albumin-conjugated paclitaxel (nab-paclitaxel/Abraxane™) alone or in combination with the EGFR-targeting mAb cetuximab/Erbitux™ (38). […] Because of its therapeutic relevance, we further studied JO-4 in an adequate mouse tumor model. […] These mice were subcutaneously implanted with syngeneic TC1-hDSG tumors. […] We also analyzed hematological parameters after i.v. JO-1 and JO-4 injection.

[2] = Blood chemistry and blood cell counts after i.v. injection; format: in vivo, hDSG2 transgenic mice; conditions: for Blood chemistry / Blood cell counts: after i.v. injection; for Blood cell counts: N=3; for Time of nadir of lymphocyte and platelet counts: p.i.
Protocol: as §2
Two of the affinity enhanced version of JO-1, Y293D and V250F were analyzed in in vivo assay. We called these mutants JO-2 and JO-4, respectively. The first study was performed in a xenograft model derived from A549 cells similar to the study described for FIG. 5B. […] Additional studies were performed in xenograft tumors derived from ovc316 cells (30, 32). Ovc316 cells are Her2/neu positive epithelial tumor cells derived from an ovarian cancer biopsy. These cells can undergo EMT and the reverse process, mesenchymal-to-epithelial-transition (MET), under specific conditions in vitro and in vivo. A subfraction of ovc316 cells that is positive for Nanog, CD133, and E-cadherin is enriched for cancer stem cells, i.e. self-renewing cells with pluripotent potential and tumor forming ability (30). Ovc316 cells therefore closely model the heterogeneity and plasticity seen in tumors in situ. […] Finally, we tested JO-4 in a model for triple-negative breast cancer (TNBC). TNBC is characterized by a lack or minimal expression of estrogen receptor (ER), progesterone receptor (PR) and the absence of Her2/neu overexpression. TNBC accounts for 15% of all breast cancers. Overall survival is poor compared with that in patients who have other phenotypes. A characteristic feature of TNBC is high levels of DSG2 and epithelial junctions. Promising clinical results in the treatment of TNBS have been achieved with nanoparticle, albumin-conjugated paclitaxel (nab-paclitaxel/Abraxane™) alone or in combination with the EGFR-targeting mAb cetuximab/Erbitux™ (38). […] Because of its therapeutic relevance, we further studied JO-4 in an adequate mouse tumor model. […] These mice were subcutaneously implanted with syngeneic TC1-hDSG tumors. When tumors reached a volume of ˜600 mm^3, JO-1 or JO-4 was intravenously injected for safety and efficacy studies. […] After one hour post-injection JO-1 and JO-4 concentration reached a plateau with ˜100 ng/ml. We also analyzed hematological parameters after i.v. JO-1 and JO-4 injection.

A549 xenograft tumors = assay: Enhancement of irinotecan therapy in A549 xenograft tumors; format: in vivo, CB17-SCID/beige mice; conditions: 2 mg/kg i.v. one hour before irinotecan 37.5 mg/kg i.v.; days 15 and 25; N=5
Protocol: FIG. 5. Correlation of reduced DSG2 binding with the ability to open epithelial junctions. A) Transepithelial electrical resistance (TEER) measured on polarized colon cancer T84 cells. Cells were cultured in transwell chambers until the TEER was constant, i.e. tight junctions had formed. A total of 5 μg of dimeric Ad3 fiber knobs in PBS was then added for 1 hour to the apical chamber. TEER was measured at the indicated time points. N=6. For time points 1.5 and 4 hours the difference between JO-1 vs D261N and N186D was significant (p<0.01). The arrows indicate the addition and removal of Ad3 fiber knobs. B) Enhancement of irinotecan therapy. A total of 4×10^6 A549 cells were injected subcutaneously into CB17-SCID/beige mice. Once the tumor reached a volume of ˜100 mm^3 (day 15 after implantation), the mice were injected intravenously with 2 mg/kg JO-1, E299V, N186D, or PBS, followed by an intravenous injection of irinotecan (37.5 mg/kg) one hour later. The treatment was repeated on day 25. N=5. […] The difference between “irinotecan” vs “JO-1+irinotecan” was significant (p<0.01) from day 20 on.
as §1
A549, MDA-MB-231, and ovc316 xenograft tumors were established by injection of the corresponding tumor cells into the mammary fat pad (1:1 with Matrigel) of CB17 mice. TC1-DSG2 tumors were established by subcutaneous injection of TC1-DSG2 cells into DSG2 transgenic mice. JO-0, JO-1, JO-2, or JO-4 were intravenously injected one hour before the application of chemotherapeutic drugs: Irinotecan/Camptosar™ (Pfizer Inc., Groton, Conn.), PEGylated liposomal doxorubicin/Lipodox™ (Sun Pharmaceuticals IN, India), cetuximab/Erbitux™ (ImClone, Somerville, N.J.), nanoparticle albumin conjugated paclitaxel/Abraxane™ (Abraxis Biosciences, Summit N.J.). Tumor volumes were measured three times a week. Each treatment group consisted of a minimum of 5 mice.

Row | Molecule | Enhancement of PLD therapy (ovc316 xenograft tumors; 2 mg/kg i.v. one hour before PLD 1 mg/kg i.v.) | Decline of serum concentration within an hour after injection [1] | Serum concentration plateau [1] | Blood chemistry [2] | Blood cell counts [2] | Time of nadir of lymphocyte and platelet counts [2] | Enhancement of irinotecan therapy (A549 xenograft tumors) | Enhancement of PLD therapy (ovc316 xenograft tumors; 0.5 mg/kg i.v. one hour before PLD 1 mg/kg i.v.) | Lymphocyte and platelet counts compared with JO-1 ([2]; nadir at 24 hours p.i. and recovery)
1 | B1 | significantly increased the treatment efficiency | declined more than one order of magnitude | ~100 ng/mL | did not show abnormal changes | normal except for lymphocyte and platelet number, which decreased early after injection | 24 h | enhanced irinotecan therapy; also recorded: significant |  | 
2 | B2 |  | declined more than one order of magnitude; also recorded: significantly greater | ~100 ng/mL | did not show abnormal changes | normal except for lymphocyte and platelet number, which decreased early after injection | 24 h | increased irinotecan therapy significantly more than JO-1; also recorded: significantly more efficient than JO-2; also recorded: significant from day 20 on | even greater stimulating effect on PLD therapy; also recorded: enhances PLD therapy in an ovarian cancer model at lower dose than JO-1 | significantly lower numbers; also recorded: returned to normal levels faster
